Assay results reported in publication PMC2826804 (Journal of molecular biology, 2009).

Molecular target: the molecule itself
Experiment: native gel or EMSA

B1: GST-LARP6 fusion protein (La ribonucleoprotein domain family, member 6) (natural protein, human, UniProt Q9BRS8 1-491, looked up)
chain: MAQSGGEARPGPKTAVQIRVAIQEAEDVDELEDEEEGAETRGAGDPARYLSPGWGSASEEEPSRGHSGTTASGGENEREDLEQEWKPPDEELIKKLVDQIEFYFSDENLEKDAFLLKHVRRNKLGYVSVKLLTSFKKVKHLTRDWRTTAHALKYSVVLELNEDHRKVRRTTPVPLFPNENLPSKMLLVYDLYLSPKLWALATPQKNGRVQEKVMEHLLKLFGTFGVISSVRILKPGRELPPDIRRISSRYSQVGTQECAIVEFEEVEAAIKAHEFMITESQGKENMKAVLIGMKPPKKKPAKDKNHDEEPTASIHLNKSLNKRVEELQYMGDESSANSSSDPESNPTSPMAGRRHAATNKLSPSGHQNLFLSPNASPCTSPWSSPLAQRKGVSRKSPLAEEGRLNCSTSPEIFRKCMDYSSDSSVTPSGSPWVRRRRQAEMGTQEKSPGTSPLLSRKMQTADGLPVGVLRLPRGPDNTRGFHGHERSRACV
Does B1 bind?
Result: binds
